Measured values: the DeepSol protein solubility set

Assay: soluble on expression in E. coli; label from the status in PepcDB or PDB records

Sequence	soluble on expression in E. coli
MGSDKIHHHHHHMAKDIHSKAGTTLPPYFNIDPDAAMAELDQPTDTARFAEIAEGCARGRADLASRGLNEEGSKNLRLFSTWEITRYLIPVAQAHFRRVLKANPDLPQGRSETEGGAKWFTLDEVLRLRAFFAAQGSKAKNYLPYRPEGLPAKLVAVANFKGGVGKTSTAAHLAMSAALDGYKVLVIDLDSQGSMTSIFGGKIEDEWQTAFPLLARHYGEHLRVENQRRLDRGDAPQPLDESLTAAMEMTAKDVIQPTHWPNIDLIGAQLNLYWAEFQIPVWRMAARSWKLWDALTDRLEADGVLDQYDVVFIDTPPALGYLTINGLSAADILLVPMGASFLEFDSTGRFFDMLHSTFASIEEGENLAARALGRPEIGFEWDAVRAVITRYDGAQQGELAGLVQAYMGPTLSPHRQDFTALIGQAGEQVNGIYEADYRDFNRETYARGRETFDETYAAFKRLLNGVWRREELAVQEERAAS	not soluble
MAGKPKLHYFNGRGRMEPIRWLLAAAGVEFEEKFIGSAEDLGKLRNDGSLMFQQVPMVEIDGMKLVQTRAILNYIASKYNLYGKDIKERALIDMYTEGMADLNEMILLLPLCRPEEKDAKIALIKEKTKSRYFPAFEKVLQSHGQDYLVGNKLSRADISLVELLYYVEELDSSLISNFPLLKALKTRISNLPTVKKFLQPGSPRKPPADAKALEEARKIFRF	soluble
SAGNAEPPPAGAACPQDRRSCSGRAGGDRVWEDGEHPAKKLKSGGDEERREKPPKRKIVLLMAYSGKGYHGMQRNVGSSQFKTIEDDLVSALVRSGCIPENHGEDMRKMSFQRCARTDKGVSAAGQVVSLKVWLIDDILEKINSHLPSHIRILGLKRVTGGFNSKNRCDARTYCYLLPTFAFAHKDRDVQDETYRLSAETLQQVNRLLACYKGTHNFHNFTSQKGPQDPSACRYILEMYCEEPFVREGLEFAVIRVKGQSFMMHQIRKMVGLVVAIVKGYAPESVLERSWGTEKVDVPKAPGLGLVLERVHFEKYNQRFGNDGLHEPLDWAQEEGKVAAFKEEHIYPTIIGTERDERSMAQWLSTLPIHNFSATALTAGGTGAKVPSPLEGSEGDGDTD	soluble
MGPAPRVLELFYDVLSPYSWLGFEVLCRYQHLWNIKLKLRPALLAGIMKDSGNQPPAMVPHKGQYILKEIPLLKQLFQVPMSVPKDFFGEHVKKGTVNAMRFLTAVSMEQPEMLEKVSRELWMRIWSRDEDITESQNILSAAEKAGMATAQAQHLLNKISTELVKSKLRETTGAACKYGAFGLPTTVAHVDGKTYMLFGSDRMELLAYLLGEKWMGPVPPTLNARL	soluble
GPGYNEPQDKKTMMMNEEDDGNGMDELLAVLGYKVRSSEMADVAQKLEQLEVMMSNVQEDDLSQLATETVHYNPAELYTWLDSMLTDLNPPSSNAEYDLKAIPGDAILNQ	soluble
MSPTTDRIAVVGGSISGLTAALMLRDAGVDVDVYERSPQPLSGFGTGIVVQPELVHYLLEQGVELDSISVPSSSMEYVDALTGERVGSVPADWRFTSYDSIYGGLYELFGPERYHTSKCLVGLSQDSETVQMRFSDGTKAEANWVIGADGGASVVRKRLLGIEPTYAGYVTWRGVLQPGEVADDVWNYFNDKFTYGLLDDGHLIAYPIPGRENAESPRLNFQWYWNVAEGPDLDELMTDVRGIRLPTSVHNNSLNPHNLRQFHSKGESLFKPFRDLVLNASSPFVTVVADATVDRMVHGRVLLIGDAAVTPRPHAAAGGAKASDDARTLAEVFTKNHDLRGSLQSWETRQLQQGHAYLNKVKKMASRLQHGGSFEPGNPAFAFGLPKVDEPSVVTNS	soluble
MAHHHHHHMWRPRRVQGLGSGEDICHLVSAVRRQGIRSLPSGLVVAAEIAYRCCSYSIESFQTDSTEAKKPSRVVGTAPTERQKRPSALAPSSSIPATEKAGIIVEWVPDALGYHLPLGLRERWEPSSKASPTEAGGLKASNDAETHGTEQQELEEVSSVGNPCASSRVGDGGGGSGHRSGHSDGPPFYGPLPNFATSPVFEWERCLWQWRPVKITPAAGTPHHTSLTVTAPISSSGEKRPLRDEMHCSDGGENDLAEGGLGESSQVYHLVPFLLCPTLEVCATQPLMHGSLRKELAAAQNACHHLRRSWPEDAKQDLLGTRRCPTYSEHETRLWSITIPTPVGELALSSPQDTDGDDANKQNTMLDLPTFAMIEGEPPMRVGGRIRACCGHGITSPAPPEAETWEAATAAARNERSTSAGNAAVPYVHVFCSEMSAACSDSLLSQTGIKASELPTPSSCDVSSPTLPLTRRNVVGGGLAELILAVDRYAALIARGDLALSAACWATLCDTKSWWVVQRLRVCPLEMERELVAATEAHKLWQQYAVSRNSTLVGKSSHGICFYDYPFLAKWPLGRQAATKATAPIRAHTRWRV	not soluble
EIILNASAMFNHSNAKLALSIDKKLRKVIVTPDMHRVHHSVMVKETHSNFGFFLSVWDRWFGTYRAQPALGHNDVVIGVPEIREASEQRLDKLLTQPFRYREGKGKNVD	not soluble
MAHHHHHHMACDDSTKRNAAAVNRLLQKTRAATAPNSQWLNSITRREDGTLSNELHLSNQQRLACEMGVFPKGHFGDVEIEEENPQRSCHALAQRRARHEWKTDEEAKRRLQIGRGEVCNKRELRAAARREAAILRYEMTLPRRRVVGHLSHLMPAQADASLAVPTEGAADALVEKGCGRWVLHNSYRQQLLHGEPVMTRIMRGEFYETKPPPQRKKKVWAAGKRHVRMTSEVNRLMNTGGWCR	not soluble
MGSDKIHHHHHHMLTRLELAKDWVRDAGNFLKENIAAPLEITEKTRYDDLVTNFDKEVQEQIVANILHHFPEDKILAEEDEEKIKFDSEIPHLWVLDPIDGTTNFIVQKDNFAVMLAYYEYGVGKFGLILDVMKDKLYWCDSHKAFCNQKELELKERPLAQSLLGVNSYMYRSNSGGLLDLSHQTLGVRIIGSAGISYGQLLEGKIIGYFSSLQPWDYAAGSIIAERIGYVTLTISGESPHFNCRERVFTAPSYLISEIQKYIKK	not soluble
MLNPDELVAIDIHTHAEEPCGCHADDGYDDFQARMAEYFGSPNKHPPTVPETAAYYRAKKIAAVIFPVDAERETGFRRYNNDEMIEITRQNSDVLIPFASIDPHKGKIGVREARRLIADYGIKGFKFHPTMQGFYANDRLAYPLYEAIQEGGAIALFHTGQTGVGSGMPGGMGMRLKYSNPMYMDDVAADFPDMKIVLAHPSFPWQEEALSVATHKPNVYIDLSGWSPKYFPPILVRYINSILQDKMLFGSDWPVITPDRWLSDFAKLEIREEVRAKVLKQNARKLLGIAAALEHHHHHH	not soluble
MAHHHHHHMRKVKKNKQVRNMLKSLTERVDTDDGENEYARLTQTPVVKMNLSKVKLKTSLQSVLVEPYTEKVKDFVAKTNYEISMEKTLLDEIKNANQNMDRIGDVLSARGGKQRKTRDNHHIMGRYFHYLRDKNEDFGLSFFPVYKTFKSNFSHFSDNLNSSLYPHELLEMGSMSSGNFLKNSSKRISFPERGDS	not soluble
MQGSVTEFLKPRLVDIEQISTTHAKVTLEPLERGFGHTLGNALRRILLSSMPGCAVTEVEIEGVLHEYSTKEGVQEDILEILLNLKGLAVRVAEGKDEVFITLNKSGSGPVVAGDITHDGDVEIVNPEHVICHLTSDNAAIAMRIKVERGRGYVPASARIHTEEDERPIGRLLVDATFSPVDKIAYSVEAARVEQRTDLDKLVIDMETNGTLEPEEAIRRAATILAEQLDAFVDLRDVRVPEEKEEKPEFDPILLRPVDDLELTVRSANCLKAEAIHYIGDLVQRTEVELLKTPNLGKKSLTEIKDVLASRGLSLGMRLENWPPASIAED	soluble
MSVLEKIDSPADLKKVSNQELEELASEIRTAVLHKVSNIGGHVGPNLGVTELTIALHKVFNSPIDKFIWDVSHQTYPHKILTGRKNGFTDGHFHDITPYTSQRESEHDFFTVGHTSTSIANALGYAKARDLTNDKGNIVAVIGDGSLSGGLAMEALNNAGDFKGNLIILVNDNQMSIAENHGGLYRNLAELRATNGQAENNFFKTFGLDYKYLENGNDIESLIHLFEEVKDIDHPIVLHIHTEKGRGYQPALENKEAFHWHMPFDLETGQSKVIDSGKSYSSVMLDYMDKKVSEGLPLVAINAAIPGIFGLKQFAAKYPDRYIDAGIAEQFTITFGGAMAAAGARPIIFHNSTFVQRAYDQFWHDLAINEEPAIVIVKGGVISGSDETHQGSSAMTWISNIPNIKYLAPTSEEEFISILDWALEQHEEPVVIQMPEHGLESRPTVLTDYSTPSYQMTKSGEKVALLALGGLYSHGEKVAKVLAENGINATLINPLFINDLDQAFLENLVENHQVIATIEDGILDGGFGQKVASFLGKYDVKVLNFGAKREFNDSVPVTELYNRYHLTPELMVADILSLLKLEHHHHHH	not soluble
